Data as given in doi:10.1101/2022.08.09.502851, “Dystroglycan N-terminal domain enables LARGE1 to extend matriglycan on α-dystroglycan and prevents muscular dystrophy” (bioRxiv, 2022).

Molecular target: T1, laminin-111 (mouse Engelbreth-Holm-Swarm (EHS) laminin) (mouse, UniProt P19137 25-3083; P02469 22-1786; P02468 34-1607)
T1 construct: laminin subunit alpha-1 of laminin-111, mouse EHS laminin; laminin subunit beta-1 of laminin-111, mouse EHS laminin; laminin subunit gamma-1 of laminin-111, mouse EHS laminin; source: bought: ThermoFisher, 23017015 (mouse Engelbreth-Holm-Swarm laminin); copies: + +
Assay: ELISA; solid-phase assay: WGA eluates of skeletal muscle diluted 1:50 in TBS coated on polystyrene microplates overnight at 4 °C; Laminin-111 in laminin-binding buffer; bound laminin detected with L9393 and HRP anti-rabbit IgG, absorbance at 490 nm; three replicates for each group
Conditions: one partner purified

Kd [nM] | Binder
0.966 ± 0.069 | α-dystroglycan (α-DG), wild type, with full-length matriglycan, from control (WT littermate or C57BL/6J) mouse skeletal muscle (receptor, mouse (endogenous in skeletal muscle), UniProt Q62165 28-651, looked up, matriglycan [-GlcA-β1,3-Xyl-α1,3-]n, full length (α-DG of ~150-250 kDa); extensive O-glycosylation, α-dystroglycan, the α-subunit cut from the DG pre-proprotein (Dag1), mouse; also called α-DG (WT)) HWPSEPSEAVRDWKNQLEASMHSVLSDFQEAVPTVVGIPDGTAVVGRSFRVSIPTDLIASSGEIIKVSAAGKEALPSWLHWDPHSHILEGLPLDTDKGVHYISVSAARLGANGSHVPQTSSVFSIEVYPEDHNEPQSVRAASSDPGEVVPSACAADEPVTVLTVILDADLTKMTPKQRIDLLNRMQSFSEVELHNMKLVPVVNNRLFDMSAFMAGPGNAKKVVENGALLSWKLGCSLNQNSVPDIRGVETPAREGAMSAQLGYPVVGWHIANKKPTLPKRLRRQIHATPTPVTAIGPPTTAIQEPPSRIVPTPTSPAIAPPTETMAPPVRDPVPGKPTVTIRTRGAIIQTPTLGPIQPTRVSEAGTTVPGQIRPTLTIPGYVEPTAVITPPTTTTKKPRVSTPKPATPSTDSSTTTTRRPTKKPRTPRPVPRVTTKAPITRLETASPPTRIRTTTSGVPRGGEPNQRPELKNHIDRVDAWVGTYFEVKIPSDTFYDNEDTTTDKLKLTLKLREQQLVGEKSWVQFNSNSQLMYGLPDSSHVGKHEYFMHATDKGGLSAVDAFEIHVHKRPQGDKAPARFKARLAGDPAPVVNDIHKKIALVKKLAFAFGDRNCSSITLQNITRG
1.9 ± 0.199 | α-dystroglycan with the knock-in mutation T190M, from Dag1 T190M mouse skeletal muscle (receptor, UniProt Q62165 28-651, looked up, matriglycan shorter than wild type (α-DG laminin-binding band at ~100-150 kDa), α-dystroglycan, the α-subunit cut from the DG pre-proprotein (Dag1), mouse, knock-in T190M (Hara et al., 2011); also called α-DGN mutant (T190M)) HWPSEPSEAVRDWKNQLEASMHSVLSDFQEAVPTVVGIPDGTAVVGRSFRVSIPTDLIASSGEIIKVSAAGKEALPSWLHWDPHSHILEGLPLDTDKGVHYISVSAARLGANGSHVPQTSSVFSIEVYPEDHNEPQSVRAASSDPGEVVPSACAADEPVTVLMVILDADLTKMTPKQRIDLLNRMQSFSEVELHNMKLVPVVNNRLFDMSAFMAGPGNAKKVVENGALLSWKLGCSLNQNSVPDIRGVETPAREGAMSAQLGYPVVGWHIANKKPTLPKRLRRQIHATPTPVTAIGPPTTAIQEPPSRIVPTPTSPAIAPPTETMAPPVRDPVPGKPTVTIRTRGAIIQTPTLGPIQPTRVSEAGTTVPGQIRPTLTIPGYVEPTAVITPPTTTTKKPRVSTPKPATPSTDSSTTTTRRPTKKPRTPRPVPRVTTKAPITRLETASPPTRIRTTTSGVPRGGEPNQRPELKNHIDRVDAWVGTYFEVKIPSDTFYDNEDTTTDKLKLTLKLREQQLVGEKSWVQFNSNSQLMYGLPDSSHVGKHEYFMHATDKGGLSAVDAFEIHVHKRPQGDKAPARFKARLAGDPAPVVNDIHKKIALVKKLAFAFGDRNCSSITLQNITRG
